Source: US20190040477

How the values were obtained:
[1] = test system: GST-wRtACPI (wild type first ACP domain of Rhodosporidium toruloides Fas2, residues 1022-1184, as GST fusion protein)
[2] = test system: GST-wRtACPII (wild type second ACP domain of Rhodosporidium toruloides Fas2, residues 1213-1375, as GST fusion protein)
[3] = test system: GST-mRtACPII (S1253A mutant of the second ACP domain of Rhodosporidium toruloides Fas2, residues 1213-1375, as GST fusion protein)
[4] = test system: GST-mRtACPI (S1062A mutant of the first ACP domain of Rhodosporidium toruloides Fas2, residues 1022-1184, as GST fusion protein)

GST-RtPPT (phosphopantetheinyl transferase domain of Rhodosporidium toruloides Fas2, residues 2809-2928, as GST fusion protein)
ΔM (Da): gain in molecular weight of the ACP after treatment by PPT, MALDI-TOF mass spectrometry (in vitro phosphopantetheinylation) [1]: 332 Da
ΔM (Da): gain in molecular weight of the ACP after treatment by PPT, MALDI-TOF mass spectrometry (in vitro phosphopantetheinylation) [2]: 322 Da
ΔM (Da): change in molecular weight of the ACP after treatment by PPT, MALDI-TOF mass spectrometry (in vitro phosphopantetheinylation) [3]: 46 Da
ΔM (Da): change in molecular weight of the ACP after treatment by PPT, MALDI-TOF mass spectrometry (in vitro phosphopantetheinylation) [4]: 2 Da
